Test results published in US20250136678A1 (BIOSION, published 2025).
Positions count from the first letter of the chain named. Values belong to the molecule of their own block, whether it stands above or below them.

Legend:
[1] = target: human CLDN18.1 (Uniprot No:P56856) (human) (UniProt P56856); experiment: FACS on BAF3-CLDN18.1 cells, FITC fluorescence; item A1; blank without antibody (C1) MFI 242
[2] = target: human CLDN18.1 (Uniprot No:P56856) (human) (UniProt P56856); experiment: FACS on BAF3-CLDN18.1 cells, FITC fluorescence; item B1; blank without antibody (C1) MFI 242
[3] = target: T1, human CLDN18.2 (NP_001002026.1) (human, UniProt P56856-2 1-261); experiment: FACS on BAF3-CLDN18.2 cells, FITC fluorescence; item F7; blank without antibody (H7) MFI 178
T1 construct: whole, on cells; KATO III cells also served as target cells in the ADCC assay; also called Claudin18.2; Claudin-18 splice variant 2

[4] = target: T1, human CLDN18.2 (NP_001002026.1); experiment: FACS on BAF3-CLDN18.2 cells, FITC fluorescence; item G7; blank without antibody (H7) MFI 178
[5] = target: T1, human CLDN18.2 (NP_001002026.1); experiment: FACS on 293T-CLDN18.2 cells, PE fluorescence; item A4; blank without antibody (E4) MFI 21.8
[6] = target: T1, human CLDN18.2 (NP_001002026.1); experiment: FACS on 293T-CLDN18.2 cells, PE fluorescence; item B4; blank without antibody (E4) MFI 21.8
[7] = target: T1, human CLDN18.2 (NP_001002026.1); experiment: FACS on 293T-CLDN18.2 cells, PE fluorescence; item D4; blank without antibody (E4) MFI 21.8
[8] = target: T1, human CLDN18.2 (NP_001002026.1); experiment: cell-based binding FACS on BAF3-CLDN18.2 cells, MFI against Con of mAb, nM is the unit of the x axis; curve lies in a bundle of overlapping curves reaching MFI about 5000-6000
Protocol: (§1) The BAF3-CLDN18.2, BAF3-CLDN18.1 and BAF3 cells were harvested, washed twice and re-suspended in phosphate buffered saline (PBS) containing 2% v/v Fetal Bovine Serum (FACS buffer), BAF3 cells were used here as blank control. The cells, 1×10⁵ per well, were incubated in 96 well-plates with 100 μl serially diluted antibodies or controls (starting from 10 μg/mL, 5-fold serial dilution) in FACS buffer for 50 minutes on ice. […] Following an incubation of 50 minutes at 4° C. in dark, cells were washed three times and re-suspended in FACS buffer. Fluorescence was measured using a Becton Dickinson FACS Canto II-HTS equipment, and the MFI (mean fluorescence intensity) was plotted against antibody concentration. Data was analyzed using Graphpad Prism and EC₅₀ values were reported.

[9] = target: T1, human CLDN18.2 (NP_001002026.1); experiment: cell-based binding FACS on BAF3-CLDN18.2 cells, MFI against Con of mAb, nM is the unit of the x axis; curve lies in a bundle of close curves reaching MFI about 5300-5900
Protocol: as §1

[10] = target: T1, human CLDN18.2 (NP_001002026.1); experiment: cell-based binding FACS on BAF3-CLDN18.2 cells, MFI against Con of mAb (nM)
Protocol: as §1

[11] = target: T1, human CLDN18.2 (NP_001002026.1); experiment: cell-based binding FACS on BAF3-CLDN18.2 cells, MFI against Con of mAb, nM is the unit of the x axis; the three mouse curves overlap and level off near MFI 2300-2400
Protocol: as §1

[12] = target: T1, human CLDN18.2 (NP_001002026.1); experiment: cell-based blocking FACS on BAF3-CLDN18.2 cells; competitor: biotin labeled Zolbetuximab, SA-PE detection, nM is the unit of the x axis; signal falls from about 800-870 to about 110 at the last point
Protocol: The anti-CLDN18.2 antibodies of the disclosure, and the controls were diluted with FACS buffer starting from 10 μg/mL with 5-fold serial dilution. BAF3-CLDN18.2 cells were harvested from cell culture flasks at the log phase, washed twice and re-suspended in PBS containing 2% v/v Fetal Bovine Serum (FACS buffer). […] Then the cells were washed twice with FACS buffer, added with 100 μl/well SA-PE (1:200 dilution in FACS buffer, Cat #:016-110-084, Jackson Immunoresearch), and incubated for 40 minutes at 4° C. in dark. Cells were washed twice and re-suspended in FACS buffer. Fluorescence was measured using a Becton Dickinson FACS Canto II-HTS equipment. Data was analyzed using Graphpad Prism and IC₅₀ values were reported.

[13] = target: T1, human CLDN18.2 (NP_001002026.1); experiment: cell-based binding FACS on BAF3-CLDN18.2 cells; y axis unlabelled, nM is the unit of the x axis; the three chimeric curves run close together and reach about 7200-7700 at the last point without a clear plateau
Protocol: as §1

Molecule: anti-CLDN18 antibody (Cat #ab203563, Abeam)
MFI at 1000 ng/ml [1]: 5340
MFI at 500 ng/ml [2]: 4020
MFI at 1000 ng/ml [3]: 3340
MFI at 500 ng/ml [4]: 3020

Molecule: hIgG (antibody)
MFI at 10000 ng/ml [5]: 26.9
MFI at 2500 ng/ml [6]: 28.7
MFI at 156.25 ng/ml [7]: 21.4

B1: huE1B1B8C7-V2 (antibody, human IgG1, kappa, V domains shown)
VH: QVQLVQSGAEVKKPGASVKVSCKASGYSFTNYWVNWVRQAPGQGLEWIGMVHPSGSETRLNQQFKDKATLTVDTSTSTVYMELSSLRSEDTAVYYCARVWSGNAFDYWGQGTLVTVSS
VL: DIVMTQSPDSLAVSLGERATINCLSSQSLLASGNQRNYLTWYQQKPGQPPKLLIYWASTRDSGVPDRFTGSGSGVDFTLTISSVQAEDVAVYYCQNGFSFPFTFGQGTKLEIKR
notes: Humanized, human IgG1/kappa; X positions as numbered in CLM-00003 and CLM-00004
EC50 [8]: 5.18 nM

B3: huE1B1B8C7-V7 (antibody, human IgG1, kappa, V domains shown)
VH: B1 VH with L70M
VL: B1 VL
notes: as for B1
EC50 [8]: 3.89 nM

B5: huE1B1B8C7-V14 (antibody, human IgG1, kappa, V domains shown)
VH: B1 VH with S28T
VL: B1 VL with V75T
notes: as for B1
EC50 [9]: 4.03 nM

B6: huE1B1B8C7-V1 (antibody, human IgG1, kappa, V domains shown)
VH: B1 VH with T74K, V79A
VL: B1 VL
notes: as for B1
EC50 [8]: 3.32 nM

B7: huE1B1B8C7-V5 (antibody, human IgG1, kappa, V domains shown)
VH: B1 VH with K67R
VL: B1 VL
notes: as for B1
EC50 [8]: 4.33 nM

B8: huE1B1B8C7-V6 (antibody, human IgG1, kappa, V domains shown)
VH: B1 VH with A68V
VL: B1 VL
notes: as for B1
EC50 [8]: 3.1 nM

B11: huE1B1B8C7-V16 (antibody, human IgG1, kappa, V domains shown)
VH: B1 VH
VL: B1 VL with V84L
notes: as for B1
EC50 [9]: 3.29 nM

B12: huE1B1B8C7-V15 (antibody, human IgG1, kappa, V domains shown)
VH: B1 VH with T74K, V79A
VL: B1 VL with V84L
notes: as for B1
EC50 [9]: 2.76 nM

B16: huE1B1B8C7-V8 (antibody, human IgG1, kappa, V domains shown)
VH: B1 VH with V72R
VL: B1 VL
notes: as for B1
binding result [10]: binds

B17: huE1B1B8C7-V4 (antibody, human IgG1, kappa, V domains shown)
VH: B1 VH with I48M
VL: B1 VL
notes: as for B1
EC50 [8]: 3.63 nM

B18: mouse antibody E1B1B8C7 (antibody, V domains shown)
VH: QVQLQQPGAELVRPGTSVKLSCKASGYSFTNYWVNWVKQRPGQGLEWIGMVHPSGSETRLNQQFKDKATLTVDKSSNTAYMQLNRPTSEDSAVYYCARVWSGNAFDYWGQGTTLIVSS
VL: DIVMTQSPSSLTVTAGEKVTLNCLSSQSLLNSGNQRNYLTWYQQKPGQPPKLLIYWASTRDSGVPDRFTGGGSGVDFTLTIYRVQAEDLAFYYCQNGFSFPFTFGSGTKLEMK
notes: Mouse hybridoma monoclonal antibody; also called mouse E1B1B8C7
EC50 [11]: 2.24 nM
IC50 [12]: 6.86 nM

B19: chE1B1B8C7-V2 (antibody, human IgG1, kappa, V domains shown)
VH: B18 VH
VL: DIVMTQSPSSLTVTAGEKVTLNCLSSQSLLNAGNQRNYLTWYQQKPGQPPKLLIYWASTRDSGVPDRFTGGGSGVDFTLTIYRVQAEDLAFYYCQNGFSFPFTFGSGTKLEMKR
notes: Chimeric human IgG1/kappa; also called chimeric antibody chE1B1B8C7-V2
EC50 [13]: 3.91 nM

B21: mouse antibody E1A1F4B5 (antibody, V domains shown)
VH: B18 VH with V51I, Q63R, K65R, A68T, K74R
VL: B18 VL with L24M, R36K, Y93F
notes: Mouse hybridoma monoclonal antibody purified on Protein A
EC50 [11]: 1.76 nM
IC50 [12]: 5.29 nM

Second part, the molecule after the results:

EC50 [9]: 5.74 nM
B2: huE1B1B8C7-V10 (antibody, human IgG1, kappa, V domains shown)
VH: B1 VH
VL: B1 VL with T69S
notes: as for B1

EC50 [9]: 5.39 nM
B4: huE1B1B8C7-V11 (antibody, human IgG1, kappa, V domains shown)
VH: B1 VH with S28T
VL: B1 VL with T69S
notes: as for B1

EC50 [9]: 4.87 nM
B9: huE1B1B8C7-V17 (antibody, human IgG1, kappa, V domains shown)
VH: B1 VH with S28T
VL: B1 VL with V84L
notes: as for B1

EC50 [8]: 3.7 nM
B10: huE1B1B8C7-V3 (antibody, human IgG1, kappa, V domains shown)
VH: B1 VH with S28T
VL: B1 VL
notes: as for B1

EC50 [9]: 3.06 nM
B13: huE1B1B8C7-V12 (antibody, human IgG1, kappa, V domains shown)
VH: B1 VH with T74K, V79A
VL: B1 VL with V75T

EC50 [8]: 2.31 nM
B14: huE1B1B8C7-V9 (antibody, human IgG1, kappa, V domains shown)
VH: B1 VH with T74K, V79A
VL: B1 VL with T69S
notes: as for B1

EC50 [9]: 3.46 nM
B15: huE1B1B8C7-V13 (antibody, human IgG1, kappa, V domains shown)
VH: B1 VH
VL: B1 VL with V75T
notes: as for B1

EC50 [13]: 7.79 nM
B20: chE1B1B8C7-V3 (antibody, human IgG1, kappa, V domains shown)
VH: B18 VH
VL: B19 VL with A32E
notes: Chimeric human IgG1/kappa; also called chimeric antibody chE1B1B8C7-V3

EC50 [8]: 3.08 nM
EC50 [13]: 6.19 nM
B22: chE1B1B8C7-V1 (antibody, human IgG1, kappa, V domains shown)
VH: B18 VH
VL: B19 VL with N31A, A32S
notes: Chimeric human IgG1/kappa; also called chimeric antibody chE1B1B8C7-V1

EC50 [11]: 1.49 nM
IC50 [12]: 4.38 nM
B23: mouse antibody E1H4C3E5 (antibody, V domains shown)
VH: B18 VH with V34M, V51I, T58S, Q63K, E89A
VL: B18 VL with N22S, L24M, R36K, Y55F, V75T, D76L, K113R
notes: Mouse hybridoma monoclonal antibody
